Test results reported in article PMC7826282.

Target: 3xFLAG-FL-NOPCHAP1 (human) (UniProt Q8N5I9)
Assay: co-IP

Sequence of 3xFLAG-FL-NOPCHAP1 (human) (Q8N5I9 whole entry): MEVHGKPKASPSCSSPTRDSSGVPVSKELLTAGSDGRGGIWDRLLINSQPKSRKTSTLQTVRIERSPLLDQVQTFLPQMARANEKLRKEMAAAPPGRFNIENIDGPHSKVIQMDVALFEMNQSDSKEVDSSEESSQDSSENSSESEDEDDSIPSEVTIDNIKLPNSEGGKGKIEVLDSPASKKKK
Sequence of RL-NOP56-WT (O00567 whole entry): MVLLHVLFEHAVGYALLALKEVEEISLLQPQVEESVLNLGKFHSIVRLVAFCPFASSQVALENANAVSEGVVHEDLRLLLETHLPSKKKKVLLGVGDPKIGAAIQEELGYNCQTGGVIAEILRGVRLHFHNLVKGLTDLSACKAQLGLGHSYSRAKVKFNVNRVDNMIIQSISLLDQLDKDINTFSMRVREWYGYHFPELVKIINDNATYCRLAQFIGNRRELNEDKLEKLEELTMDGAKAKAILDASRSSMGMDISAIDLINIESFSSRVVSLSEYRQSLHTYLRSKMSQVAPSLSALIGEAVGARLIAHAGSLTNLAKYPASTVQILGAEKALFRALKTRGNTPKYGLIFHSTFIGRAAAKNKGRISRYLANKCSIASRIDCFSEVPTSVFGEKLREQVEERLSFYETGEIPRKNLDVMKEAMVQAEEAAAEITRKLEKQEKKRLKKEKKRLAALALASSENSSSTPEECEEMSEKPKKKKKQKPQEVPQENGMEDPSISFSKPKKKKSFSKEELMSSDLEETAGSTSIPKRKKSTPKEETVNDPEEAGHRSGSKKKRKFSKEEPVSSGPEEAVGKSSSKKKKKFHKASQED

In the case of “RL-NOP56-WT (from UniProt O00567 1-594) (natural protein)”, the co-IP efficiency is reported as < 0.05%.
